# pKd: −log10 of the molar value.
# Molecular target: His-tagged human IL-18BP (human) (UniProt O95998)
# Assay: AlphaLISA of free IL-18BP
row,Substance,pKd
1,"IL-18 variant SEQ ID NO: 4 (E6K, C38A, K53A, C68A, M86C) (from UniProt Q14116 37-193) (ligand)",7.25
2,"IL-18 variant SEQ ID NO: 4 with 30 kDa PEG (E6K, C38A, K53A, C68A, M86C-30kPEG) (from UniProt Q14116 37-193) (ligand)",6.89
3,"IL-18 variant SEQ ID NO: 5 (E6K, V11I, C38A, K53A, T63A, C68A, C76A, M86C, C127A) (from UniProt Q14116 37-193) (ligand)",6.74
4,"IL-18 variant SEQ ID NO: 5 with 30 kDa PEG (E6K, V11I, C38A, K53A, T63A, C68A, C76A, C127A, M86C-30kPEG) (from UniProt Q14116 37-193) (ligand)",7.50
5,"IL-18 variant SEQ ID NO: 6 (E6K, V11I, C38A, K53A, T63A, C68A, C76A, D98C, C127A) (from UniProt Q14116 37-193) (ligand)",6.20
6,"IL-18 variant SEQ ID NO: 6 with 30 kDa PEG (E6K, V11I, C38A, K53A, T63A, C68A, C76A, C127A, D98C-30kPEG) (from UniProt Q14116 37-193) (ligand)",7.70
7,"IL-18 variant SEQ ID NO: 8 (E6K, V11I, C38A, K53A, T63A, C68A, C76A, T95C, C127A) (from UniProt Q14116 37-193) (ligand)",7.21
8,"IL-18 variant SEQ ID NO: 9 (E6K, C38A, K53A, C68A, D98C) (from UniProt Q14116 37-193) (ligand)",7.08
9,"IL-18 variant SEQ ID NO: 9 with 30 kDa PEG (E6K, C38A, K53A, C68A, D98C-30kPEG) (from UniProt Q14116 37-193) (ligand)",6.82
10,"IL-18 variant SEQ ID NO: 11 (E6K, V11I, C38A, K53A, C76A, C127A) (from UniProt Q14116 37-193) (ligand)",7.43
11,"IL-18 variant SEQ ID NO: 28 (E6K, C38A, K53A, T63A, C76A, C127A) (from UniProt Q14116 37-193) (ligand)",7.35
12,"IL-18 variant SEQ ID NO: 28 with 30 kDa PEG (E6K, C38A, K53A, T63A, C76A, C127A, C68-30kPEG) (from UniProt Q14116 37-193) (ligand)",7.39
13,"IL-18 variant SEQ ID NO: 59 with 10 kDa PEG (E6K, C38A, K53A, C68-10kPEG) (from UniProt Q14116 37-193) (ligand)",7.29
14,"IL-18 variant SEQ ID NO: 59 with 20 kDa PEG (E6K, C38A, K53A, C68-20kPEG) (from UniProt Q14116 37-193) (ligand)",7.31
15,"IL-18 variant SEQ ID NO: 204 (V11I, C38A, K53A, C76A, C127A) (from UniProt Q14116 37-193) (ligand)",8.05
16,"IL-18 variant SEQ ID NO: 206 (V11I, C38A, K53A, S55A, C76A, C127A) (from UniProt Q14116 37-193) (ligand)",8.01
17,"IL-18 variant SEQ ID NO: 207 (V11I, C38A, M51G, K53A, C76A, C127A) (from UniProt Q14116 37-193) (ligand)",6.43
18,"IL-18 variant SEQ ID NO: 208 (V11I, C38A, K53A, D54A, C76A, C127A) (from UniProt Q14116 37-193) (ligand)",7.59
19,"IL-18 variant SEQ ID NO: 209 (F2A, V11I, C38A, K53A, C76A, C127A) (from UniProt Q14116 37-193) (ligand)",7.24
20,"IL-18 variant SEQ ID NO: 214 (V11I, D37A, C38A, K53A, C76A, C127A) (from UniProt Q14116 37-193) (ligand)",8.34
21,"IL-18 variant SEQ ID NO: 217 (V11I, C38A, N41A, K53A, C76A, C127A) (from UniProt Q14116 37-193) (ligand)",7.73
22,"IL-18 variant SEQ ID NO: 218 (V11I, C38A, K53A, C76A, C127A, D132A) (from UniProt Q14116 37-193) (ligand)",7.86

# Now those with a higher pKd, led by results:
row,pKd,Substance
1,9.18,"IL-18 variant SEQ ID NO: 205 (V11I, C38A, K53A, T63A, C76A, C127A) (from UniProt Q14116 37-193) (ligand)"
2,9.19,"IL-18 variant SEQ ID NO: 210 (V11I, E31A, C38A, K53A, C76A, C127A) (from UniProt Q14116 37-193) (ligand)"
3,8.91,"IL-18 variant SEQ ID NO: 211 (V11I, T34A, C38A, K53A, C76A, C127A) (from UniProt Q14116 37-193) (ligand)"
4,8.54,"IL-18 variant SEQ ID NO: 212 (V11I, D35A, C38A, K53A, C76A, C127A) (from UniProt Q14116 37-193) (ligand)"
5,8.95,"IL-18 variant SEQ ID NO: 213 (V11I, S36A, C38A, K53A, C76A, C127A) (from UniProt Q14116 37-193) (ligand)"
6,8.67,"IL-18 variant SEQ ID NO: 215 (V11I, E31A, D37A, C38A, K53A, C76A, C127A) (from UniProt Q14116 37-193) (ligand)"
7,9.13,"IL-18 variant SEQ ID NO: 216 (V11I, C38A, D40A, K53A, C76A, C127A) (from UniProt Q14116 37-193) (ligand)"
8,8.91,"IL-18 variant SEQ ID NO: 219 (V11I, C38A, K53A, C76A, G108A, C127A) (from UniProt Q14116 37-193) (ligand)"
9,9.26,"IL-18 variant SEQ ID NO: 220 (V11I, C38A, K53A, C76A, H109A, C127A) (from UniProt Q14116 37-193) (ligand)"
10,9.15,"IL-18 variant SEQ ID NO: 221 (V11I, C38A, K53A, C76A, D110A, C127A) (from UniProt Q14116 37-193) (ligand)"
11,10.22,"IL-18 variant SEQ ID NO: 222 (K8R, V11I, C38A, C76A, Q103E, C127A) (from UniProt Q14116 37-193) (ligand)"
12,9.07,"IL-18 variant SEQ ID NO: 223 (K8E, V11I, C38A, C76A, Q103R, C127A) (from UniProt Q14116 37-193) (ligand)"
13,10.30,"IL-18 variant SEQ ID NO: 224 (V11I, C38A, C76A, Q103K, C127A) (from UniProt Q14116 37-193) (ligand)"
14,10.10,"IL-18 variant SEQ ID NO: 225 (V11I, C38A, S55H, C76A, C127A) (from UniProt Q14116 37-193) (ligand)"
15,9.82,"IL-18 variant SEQ ID NO: 226 (V11I, C38A, S55R, C76A, C127A) (from UniProt Q14116 37-193) (ligand)"
16,10.70,"IL-18 variant SEQ ID NO: 227 (V11I, C38A, S55T, C76A, C127A) (from UniProt Q14116 37-193) (ligand)"
17,10.40,"IL-18 variant SEQ ID NO: 228 (V11I, C38A, C76A, S105I, C127A) (from UniProt Q14116 37-193) (ligand)"
18,10.30,"IL-18 variant SEQ ID NO: 229 (V11I, C38A, C76A, S105K, C127A) (from UniProt Q14116 37-193) (ligand)"

# Reference: US20250186594A1
